Reference: article PMC2517984, “TatBC, TatB, and TatC form structurally autonomous units within the twin arginine protein transport system of Escherichia coli” (Febs Letters, 2007)
Each block holds one binder with its values, some of them ahead of it.

Experiments:
[1] = molecular target: the molecule itself; experiment: native gel or EMSA; BN-PAGE (4-16% gradient) of TatCHis variants purified in digitonin from the Tat wild-type strain C43(DE3); Coomassie stained
[2] = molecular target: T1, TatC with a hexa-histidine tag on the C-terminus, co-produced with TatB (with or without TatA, TatD, TatE) (Escherichia coli, UniProt P69423 1-258); experiment: co-purification by Ni(II) affinity chromatography + SEC; TatCHis-containing complexes from digitonin-solubilized membranes of strain DADE producing TatABCHisDE; Ni(II) HiTrap column, then Superose 6 in 20 mM MOPS-HCl pH 7.2, 200 mM NaCl, 0.1% digitonin; peak fraction on SDS-PAGE, Coomassie; settings: partners not purified
T1 construct: TatC, integral membrane protein of the Escherichia coli Tat system; protomer molecular weight printed as 28.9 kDa; The printed protomer weight of 28.9 kDa fits the whole TatC protein; also called TatCHis; TatCHis of Tat(A)BCHis; source: E. coli strain DADE (MC4100 ΔtatABCDΔtatE), overproduced from pFAT75CH (TatABCHisDE) or pFAT75CHΔA (TatBCHis); digitonin-solubilized membranes; not shown: His6, …
T1 sequence (looked up): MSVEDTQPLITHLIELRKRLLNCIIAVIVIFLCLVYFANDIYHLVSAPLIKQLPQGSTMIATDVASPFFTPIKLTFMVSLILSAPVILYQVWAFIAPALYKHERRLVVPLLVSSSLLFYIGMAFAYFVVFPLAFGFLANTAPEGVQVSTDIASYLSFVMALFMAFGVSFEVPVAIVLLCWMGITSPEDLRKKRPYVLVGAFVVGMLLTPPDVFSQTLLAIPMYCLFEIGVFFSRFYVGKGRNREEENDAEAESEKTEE

[3] = molecular target: the molecule itself; experiment: native gel or EMSA; BN-PAGE (5-18% gradient) of digitonin-solubilized whole membranes of strain DADE overproducing TatBHis, TatABCHisDE or TatBCHis; immunoblot with anti-TatB or anti-His tag

B1: TatC with a hexa-histidine tag on the C-terminus, produced alone from pFAT588 (natural protein, Escherichia coli (strain MC4100), UniProt P69423 1-258, looked up)
chain: MVSVEDTQPLITHLIELRKRLLNCIIAVIVIFLCLVYFANDIYHLVSAPLIKQLPQGSTMIATDVASPFFTPIKLTFMVSLILSAPVILYQVWAFIAPALYKHERRLVVPLLVSSSLLFYIGMAFAYFVVFPLAFGFLANTAPEGVQVSTDIASYLSFVMALFMAFGVSFEVPVAIVLLCWMGITSPEDLRKKRPYVLVGAFVVGMLLTPPDVFSQTLLAIPMYCLFEIGVFFSRFYVGKGRNREEENDAEAESEKTEE
notes: TatC, Escherichia coli; tatC gene amplified from chromosomal DNA of strain MC4100, cloned NcoI/BglII into pQE60; protomer molecular weight printed as 28.9 kDa; also called TatCHis; source: E. coli strain C43(DE3) or its ΔtatABC derivative C43ΔTat(DE3), overproduced from pFAT588; digitonin-solubilized membranes; not shown: His6, C-terminal, kept
- stoichiometry N [1]: ≤ 7

- binding result [2]: binds
B2: TatB, untagged, co-produced with TatCHis (natural protein, Escherichia coli, UniProt P69425 1-171, looked up)
chain: MFDIGFSELLLVFIIGLVVLGPQRLPVAVKTVAGWIRALRSLATTVQNELTQELKLQEFQDSLKKVEKASLTNLTPELKASMDELRQAAESMKRSYVANDPEKASDEAHTIHNPVVKDNEAAHEGVTPAAAQTQASSPEQKPETTPEPVVKPAADAEPKTAAPSPSSSDKP
notes: TatB, integral membrane protein of the Escherichia coli Tat system; protomer molecular weight printed as 18.4 kDa; source: E. coli strain DADE (MC4100 ΔtatABCDΔtatE), overproduced from pFAT75CH or pFAT75CHΔA; digitonin-solubilized membranes

B3: TatB with a C-terminal hexa-histidine tag (natural protein, Escherichia coli, UniProt P69425 1-171, looked up)
chain: B2 chain
notes: TatB, integral membrane protein of the Escherichia coli Tat system; protomer molecular weight printed as 18.4 kDa; Produced in the absence of any other Tat components; detected with anti-TatB serum; also called TatBHis; source: E. coli strain DADE (MC4100 ΔtatABCDΔtatE), overproduced from pFAT586; digitonin-solubilized membranes
- stoichiometry N [3]: ≤ 4
